Paper PMC4003184 (The Journal of General Physiology, 2014)

Target: mouse TRPV4 fused to mCherry (mouse, UniProt Q9EPK8 1-871)
Assay: cross-correlation raster image correlation spectroscopy

Sequence of mouse TRPV4 fused to mCherry (Q9EPK8 whole entry, the tested form may be a part): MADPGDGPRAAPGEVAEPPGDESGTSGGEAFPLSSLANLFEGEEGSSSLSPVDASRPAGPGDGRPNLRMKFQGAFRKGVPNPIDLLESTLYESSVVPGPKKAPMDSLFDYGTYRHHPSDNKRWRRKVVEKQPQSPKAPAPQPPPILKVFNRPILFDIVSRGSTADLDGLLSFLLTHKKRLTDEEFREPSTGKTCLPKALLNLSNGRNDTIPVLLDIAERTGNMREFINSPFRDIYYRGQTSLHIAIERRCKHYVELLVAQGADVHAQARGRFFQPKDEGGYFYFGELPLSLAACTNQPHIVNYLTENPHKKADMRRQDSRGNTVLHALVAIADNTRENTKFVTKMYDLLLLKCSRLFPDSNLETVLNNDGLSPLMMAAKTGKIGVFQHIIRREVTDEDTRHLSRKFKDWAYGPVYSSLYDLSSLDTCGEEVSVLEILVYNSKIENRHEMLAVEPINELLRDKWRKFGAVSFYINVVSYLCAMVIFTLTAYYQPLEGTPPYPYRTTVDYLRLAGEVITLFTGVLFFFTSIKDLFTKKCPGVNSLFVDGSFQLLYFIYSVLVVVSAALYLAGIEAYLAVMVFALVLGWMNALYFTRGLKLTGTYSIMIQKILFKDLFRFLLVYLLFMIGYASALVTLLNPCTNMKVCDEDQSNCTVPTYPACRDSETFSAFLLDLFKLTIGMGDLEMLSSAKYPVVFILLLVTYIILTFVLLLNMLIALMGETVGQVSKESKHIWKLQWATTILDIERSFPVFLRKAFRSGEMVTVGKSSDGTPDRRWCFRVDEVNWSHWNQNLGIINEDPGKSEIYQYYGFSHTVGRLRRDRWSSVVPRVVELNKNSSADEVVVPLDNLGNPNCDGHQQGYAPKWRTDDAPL

- cross-correlation ratio (Gcc/[mean of G_(TRPV4) and G_(AKAP)]): 0.4
B1: AKAP150 fused to EGFP (natural protein, UniProt P24587 1-714, looked up)
chain: METSVSEIQIETKDEKRPEAASPQKERQERKTATLCFKRRKKVNKKKAKAGSKTAEETEKHAPEAGGSGQRQPAGAWASIKRLVTHRKPSESAEKQKPSEAEMQPEDGALPKKKTKSKLKIPCIRFSRGAKRSRPSKLTEDSGYVRVQGEADDLEIKAQIQPDEQATQAKSTQGLQEDVIVRDGKEIQESHISNNVISGEHVIGIELELEKESSALRMRTPGSEKEAKVILVKQGVQVQEASVLENSAADSPQPVTSTAPLSPATTHQLGLEEPSDSIRESAPSGKDDGRRKTAAEEKKSGETALGQAEEASSVSQADKSVLSQAEEATVGHTEEATVIQAQSQAKEGKLSQAEEATVAQAKETVLSQAEEVKLSQIEEPAISQAKKATVGQAKEAYVSQAEEAIVGHTEKATMGQAEEATVGHIEKTTVGQAEEATVGQAEEATVGQAEEATVGQAEEATVGQAEEATVGQAGEATVSHIEKTTVGQAEEAIVGQAEEATVGQAEEATVGQAEEATVGQAEEATVDQAEEATVGQAEEATVGQAGEAAVGQAEEAIVAQAEEATVGQAGEATVGQAEKATVGQAEEPIVGQAEETVLRHASDLKVNGVDAEKPRSEESKRMEPIAIIITDTEISEFDVKKSKNVPKQFLISMENEQVGVFANDSDFEGRTSEQYETLLIETASSLVKNAIELSVEQLVNEMVSEDNQINTLFQ
